Laboratory results as given in paper PMC3489787, “Characterization of EssB, a protein required for secretion of ESAT-6 like proteins in Staphylococcus aureus” (BMC Microbiology, 2012).

Biological target: the molecule itself
Assay: SEC; about 100 ug of each purified protein, tags removed, on Superdex 75 10/300 GL in 50 mM Tris-HCl pH 8.0, 150 mM NaCl, 1 mM DTT at 4 °C, 0.5 ml/min; fractions on Coomassie-stained SDS-PAGE; calibrated with aldolase 158, conalbumin 75, ovalbumin 43, myoglobin 17 kDa (the results name a Sephacryl S-200 column)

B1: EssB^NM (domain or fragment)
chain: MVKNHNPKNEMQDMLTPLDAEEAAKTKLRLDMREIPKSSIKPEHFHLMYLLEQHSPYFIDAELTELRDSFQIHYDINDNHTPFDNIKSFTKNEKLRYLLNIKNLEEVNRTRYTFVLAPDELFFTRDGLPIAKTRGLQNVVDPLPVSEAEFLTRYKALVICAFNEKQSFDALVEGNLELHKGTPFETKVIEAATLDLLTAFLDEQYQKQEQDYSQNYAYVRKVGHTVFKWVAIGMTTLSVLLIAFLAFLYFSV
notes: EssB of Staphylococcus aureus, codons 1-252, N-terminal domain with the PTMD (229-251); also called his-essB^NM product; EssB(1-252); source: E. coli, pET15b, purified (Ni-NTA Agarose, thrombin cleavage); not shown: His6, N-terminal, cleaved
- binding result: binds

B2: EssB^MC (domain or fragment)
chain: RKVGHTVFKWVAIGMTTLSVLLIAFLAFLYFSVMKHNERIEKGYQAFVKDDYTQVLNTYDDLDGKKLDKEALYIYAKSYIQTNKQGLEKDKKENLLNNVTPNSNKDYLLYWMELGQGHLDEAINIATYLDDNDITKLALINKLNEIKNNGDLSNDKRSEETKKYNDKLQDILDKEKQVKDEKAKSEEEKAKAKDEKLKQQEENEKKQKEQAQKDKEKRQEAERKK
notes: EssB of Staphylococcus aureus, codons 220-444, C-terminal domain with the PTMD (229-251); also called EssB^CM; his-essB^CM product; source: E. coli, pET15b, purified (Ni-NTA Agarose, thrombin cleavage); not shown: His6, N-terminal, cleaved
- binding result: binds
